A short description of the data set: protein stability index of a GFP-peptide fusion (GPS, HEK-293T) (PSI 1-6); higher = more stable. The settings on record: c terminus: a fixed tail appended.

± gives the standard deviation.
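Further: 24-mer peptide tiles fused after GFP, lentivirally expressed, FACS-sorted into six equal bins by GFP/DsRed ratio, decoded by Illumina sequencing, PSI is the read-weighted mean bin number.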

The sequence CQQNMIQELIETNQQLRNELQLEQ [CEP70] returned a protein stability index (treatment: DMSO) of 4.12 ± 0.26 and a protein stability index (treatment: MLN4924 1 uM, 8 h) of 3.85 ± 0.51.

In the case of KLDKKLKKMEQNKTAATRYRQKKR [ATF4], the protein stability index is 4.48 ± 0.16 (treatment: DMSO) and 4.42 ± 0.23 (treatment: MLN4924 1 uM, 8 h).

Turning to ALLDQIRQGIQLNKTPGAPESSAL [WAS], the protein stability index by setting is: (treatment: DMSO) 3.3 ± 0.16; (treatment: MLN4924 1 uM, 8 h) 3.15 ± 0.53.

Regarding TYWQCGQYLGVGPGAHGRFMPQGA [RSAD1], the protein stability index by setting is: (treatment: DMSO) 2.27 ± 0.26; (treatment: MLN4924 1 uM, 8 h) 2.65 ± 0.49.

Take GARCATWFQDPTRFTGTMDAFVKI [SLC25A39]: the protein stability index (treatment: DMSO) turned out to be 2.36 ± 0.5 and the protein stability index (treatment: MLN4924 1 uM, 8 h) was 2.61 ± 0.54.

Consider LDSSEGSSQEDEDLGLSEGSSQDS [SPANXN3], for which the protein stability index is 5.66 ± 0.19 (treatment: DMSO) and 5.64 ± 0.23 (treatment: MLN4924 1 uM, 8 h).

For SGTCSPLRHSFQKQQREKTRWLNS [ADD1], the protein stability index reads like this: (treatment: DMSO) 2.96 ± 0.26; (treatment: MLN4924 1 uM, 8 h) 3.11 ± 0.059.

Regarding ELLALETALGGQCVDRQEVAEITK [TCAP], the protein stability index was found to be 4.15 ± 0.26 (treatment: DMSO) and 4.5 ± 0.24 (treatment: MLN4924 1 uM, 8 h).

For the sequence APDAHFTVDKQNISLWPREPPPKS [CD207], the protein stability index runs as follows: (treatment: DMSO) 4.73 ± 0.24; (treatment: MLN4924 1 uM, 8 h) 4.78 ± 0.27.

Take APDLVLNAEMVQQTTYLEDRPMFM [LOXL2]: the protein stability index by setting is: (treatment: DMSO) 3.25 ± 0.18; (treatment: MLN4924 1 uM, 8 h) 3.43 ± 0.17.

For the sequence DHARGKSQVALKIIRNVGKYREAA [CLK3], the protein stability index amounted to 3.15 ± 0.18 (treatment: DMSO) and 3.33 ± 0.19 (treatment: MLN4924 1 uM, 8 h).

Turning to PPARGPRMSYGGSTCHAYSNTRDR [RBMY1A1], the protein stability index runs as follows: (treatment: DMSO) 4.1 ± 0.098; (treatment: MLN4924 1 uM, 8 h) 4.07 ± 0.12.

Consider QYQYERYGAVELSGAGRRKNATRE [IRX6], for which the protein stability index is, setting by setting: (treatment: DMSO) 4.5 ± 0.39; (treatment: MLN4924 1 uM, 8 h) 4.54 ± 0.32.

Consider EEHLSPLDFLHSANFSLGSINQRL [RNF180], for which the protein stability index came out at 3.17 ± 0.38 (treatment: DMSO) and 3.41 ± 0.24 (treatment: MLN4924 1 uM, 8 h).

Take GEVIHCKLRAMKELSEAAEAQHGP [STX11]: the protein stability index reads like this: (treatment: DMSO) 4.03 ± 0.38; (treatment: MLN4924 1 uM, 8 h) 4.22 ± 0.11.

Regarding VADMMYFCQMLAVVETINAAIGVT [HACD3], the protein stability index came to 3.06 ± 0.42 (treatment: DMSO) and 3.2 ± 0.36 (treatment: MLN4924 1 uM, 8 h).

For the sequence GGDGDDMEIFMEEMREIRRKLREL [BEX3], the protein stability index reads like this: (treatment: DMSO) 3.13 ± 0.49; (treatment: MLN4924 1 uM, 8 h) 2.04 ± 0.4.

Regarding HKVKAEEEKKAKVAPPAKQAQQKK [BRD3], the protein stability index by setting is: (treatment: DMSO) 5.5 ± 0.22; (treatment: MLN4924 1 uM, 8 h) 5.5 ± 0.29.

Consider EDILNDPSQSEVMGEPHLMVEYKL [POMP], for which the protein stability index (treatment: DMSO) stood at 3.7 ± 0.17 and the protein stability index (treatment: MLN4924 1 uM, 8 h) was 3.72 ± 0.18.

Consider VCLPRSEDDDCDDDDDDDAQILPS [DRICH1], for which the protein stability index is, setting by setting: (treatment: DMSO) 5.38 ± 0.22; (treatment: MLN4924 1 uM, 8 h) 5.14 ± 0.09.

YSNTKENGINGELTSADRETAEEV [MAP2]: the protein stability index by setting is: (treatment: DMSO) 5.47 ± 0.13; (treatment: MLN4924 1 uM, 8 h) 5.44 ± 0.24.

Consider KSKAELQSEERKRIDELIESGKEE [KMT5A], for which the protein stability index reads like this: (treatment: DMSO) 5.59 ± 0.25; (treatment: MLN4924 1 uM, 8 h) 5.67 ± 0.21.

In the case of RQRLAKNDRGDHYHWKDLNRGINI [EFHC1], the protein stability index by setting is: (treatment: DMSO) 2.96 ± 0.46; (treatment: MLN4924 1 uM, 8 h) 2.99 ± 0.21.

Take RERFMECLMIGRDLVRLLQNVARI [INTS3]: the protein stability index runs as follows: (treatment: DMSO) 2.31 ± 0.28; (treatment: MLN4924 1 uM, 8 h) 2.54 ± 0.31.

Take VRMSADAMLKALLGSKHKVCMDLR [TNNI2]: the protein stability index reads like this: (treatment: DMSO) 2.25 ± 0.45; (treatment: MLN4924 1 uM, 8 h) 2.1 ± 0.3.

In turn, LTCVICLNYLVDPVTICCGHSFCR [TRIM43] displayed a protein stability index (treatment: DMSO) of 2.83 ± 0.82 and a protein stability index (treatment: MLN4924 1 uM, 8 h) of 2.91 ± 0.97.

Consider GNATLLRIIYQNKCMRNGPNALIA [EDNRA], for which the protein stability index runs as follows: (treatment: DMSO) 2.66 ± 0.79; (treatment: MLN4924 1 uM, 8 h) 2.51 ± 0.32.

As to TSSTFGLQDGNLRAPHKESTLPRS [CHCHD6], the protein stability index by setting is: (treatment: DMSO) 4.42 ± 0.34; (treatment: MLN4924 1 uM, 8 h) 4.61 ± 0.14.

For the sequence LQELCYQWLRPHVSTKEQILDLLV [ZSCAN9], the protein stability index (treatment: DMSO) was determined as 2.52 ± 0.094 and the protein stability index (treatment: MLN4924 1 uM, 8 h) was 2.45 ± 0.28.

Values taken from the supplement of paper PMC10567573.
